The target in one experiment is human LTβR (human, UniProt P36941 31-227).
A further experiment addresses mouse LTβR (mouse, UniProt P50284 31-223).
The target in a further experiment is T1, human HVEM (human, UniProt Q92956 39-202).
T1 chain: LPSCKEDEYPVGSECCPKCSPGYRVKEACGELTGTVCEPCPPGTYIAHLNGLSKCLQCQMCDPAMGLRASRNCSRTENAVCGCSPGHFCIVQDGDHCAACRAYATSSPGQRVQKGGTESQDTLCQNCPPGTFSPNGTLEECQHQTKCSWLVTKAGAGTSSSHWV

A further experiment deals with T2, mouse HVEM (mouse, UniProt Q80WM9 39-206).
T2 chain: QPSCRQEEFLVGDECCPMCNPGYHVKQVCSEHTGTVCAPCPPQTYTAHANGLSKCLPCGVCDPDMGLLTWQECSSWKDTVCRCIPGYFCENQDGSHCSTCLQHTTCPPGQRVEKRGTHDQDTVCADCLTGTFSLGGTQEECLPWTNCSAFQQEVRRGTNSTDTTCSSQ

The term Kd denotes a measure of binding affinity in units of concentration. Higher therefore signals a looser complex.

B1: wt (ligand)
chain: LIQERRSHEVNPAAHLTGANSSLTGSGGPLLWETQLGLAFLRGLSYHDGALVVTKAGYYYIYSKVQLGGVGCPLGLASTITHGLYKRTPRYPEELELLVSQQSPCGRATSSSRVWWDSSFLGGVVHLEAGEKVVVRVLDERLVRLRDGTRSYFGAFMV
In turn, B1 displayed a Kd with DcR3 of 0.6 nM.

B2: wild type human LIGHT (ligand)
chain: LIQERRSHEVNPAAHLTGANSSLTGSGGPLLWETQLGLAFLRGLSYHDGALVVTKAGYYYIYSKVQLGGVGCPLGLASTITHGLYKRTPRYPEELELLVSQQSPCGRATSSSRVWWDSSFLGGVVHLEAGEKVVVRVLDERLVRLRDGTRSYFGAFMV
For the molecule B2, in the experiment with human LTβR, the affinity, expressed as Kd, was 1.3 nM.

B3: hLTbR (receptor)
chain: QAVPPYASENQTCRDQEKEYYEPQHRICCSRCPPGTYVSAKCSRIRDTVCATCAENSYNEHWNYLTICQLCRPCDPVMGLEEIAPCTSKRKTQCRCQPGMFCAAWALECTHCELLSDCPPGTEAELKDEVGKGNNHCVPCKAGHFQNTSSPSARCQPHTRCENQGLVEAAPGTAQSDTTCKNPLEPLPPEMSGTMLM
In turn, B3 returned a Kd in the experiment with m4-52 of 1.12 nM.

B4: mLTbR (receptor)
chain: QLVPPYRIENQTCWDQDKEYYEPMHDVCCSRCPPGEFVFAVCSRSQDTVCKTCPHNSYNEHWNHLSTCQLCRPCDIVLGFEEVAPCTSDRKAECRCQPGMSCVYLDNECVHCEEERLVLCQPGTEAEVTDEIMDTDVNCVPCKPGHFQNTSSPRARCQPHTRCEIQGLVEAAPGTSYSDTICKNPPEPGAMLL
Turning to B4, in the experiment with m4-52, binding was characterised by a dissociation constant (Kd) of 0.68 nM.

B5: m4-16 (protein)
chain: RRSHEVNPAAHLTGANFSLTGSGGPLLWETQLGQAFLRGLSYHDGALVVTKAGYYYIYSKVQLGGVGCPLGLASTITHGLYKRTPRYPEELELLVSQQSPCGRATSSSRVWWDSSFLGGVVHLEAGEEVVVRVLDDRLVRLRDGTRSYFGAFMV
In the case of B5, the Kd was found to be 0.192 nM in the experiment with mouse LTβR, 0.13 nM with human LTβR, 2.24 nM in the experiment with human HVEM and 2.22 nM with mouse HVEM.

B6: m4-7 (protein)
chain: RRSHEVNPAAHLTGANSSSTGSGGPLLWETQLGLAFLRGLSYHDGALVVTKAGYYYIYSKVQLRGVGCPLGLASTITHGLYKRTPRYPEELELLVSQQSPCGRATSSSRVWWDSSFLGGVVHLEAGEEVVVRVLDERLVRLRDGTRSYFGAFMV
For B6, the Kd was 0.118 nM with mouse LTβR, 0.157 nM in the experiment with human LTβR, 0.92 nM with human HVEM and 5.03 nM with mouse HVEM.

B7: m4-14 (protein)
chain: RRSHEVNPAAHLTGANSSLTGSGGPLLWETQLGLAFLSGLSYHDGALVVTKAGYYYIYSKVQLRGVGCPLGLASTITHGLYKRTPRYPEELELLVSQQSPCGRATSSSRVWWDSSFLGGVVHLEAGEEVVVRVLGERLVRLRDGTRSYFGAFMV
As to B7, the Kd with mouse LTβR turned out to be 0.094 nM; with human LTβR, 0.16 nM; with human HVEM, 38.5 nM; with mouse HVEM, 0.29 nM.

B8: mHVEM (receptor)
chain: QPSCRQEEFLVGDECCPMCNPGYHVKQVCSEHTGTVCAPCPPQTYTAHANGLSKCLPCGVCDPDMGLLTWQECSSWKDTVCRCIPGYFCENQDGSHCSTCLQHTTCPPGQRVEKRGTHDQDTVCADCLTGTFSLGGTQEECLPWTNCSAFQQEVRRGTNSTDTTCSSQ
Molecule B8 returned a Kd with m4-52 of 2.44 nM.

B9: hHVEM (receptor)
chain: LPSCKEDEYPVGSECCPKCSPGYRVKEACGELTGTVCEPCPPGTYIAHLNGLSKCLQCQMCDPAMGLRASRNCSRTENAVCGCSPGHFCIVQDGDHCAACRAYATSSPGQRVQKGGTESQDTLCQNCPPGTFSPNGTLEECQHQTKCSWLVTKAGAGTSSSHWV
On to B9, for which binding with m4-52 was put at a Kd of 1.42 nM.
